Consider 13 molecules from patent US20120201746A1 (AbbVie / Abbott, published 2012).

In experiment [1] the target is T1, Neonatal Fc receptor (FcRn) on CHO-FcRnGPI cells.
T1 construct: whole, on cells; also called FcRn receptor
The experiment in a line: flow cytometry on CHO-FcRnGPI cells, pH 6.4. (In general: Flow cytometry measures light scatter and fluorescence of single cells or particles in a stream.)
Description: (§1) CHO-FcRnGPI cells (Stable FcRn receptor expressor) and CHO-pBudl l cells (non-FcRn expressor) were aliquotted into 96-well plates at 1×10⁵ cells/well. Cells were resuspended in 150 μl FACS buffer. Anti-c-Met Ab and half-Ig binding proteins were diluted to 100 μg/ml in FACS buffer pH 6.4 and pH 7.4. 30 μl of diluted antibody or half-Ig binding protein was added to each well and incubated on ice for 1 hour. Following 2 washes with FACS buffer, 50 μl of secondary antibody R-phycoerythrin-conjugated AfiniPure F(ab′)₂ Fragment goat anti-human IgG (Jackson ImmunoResearch®, West Grove, Pa.) diluted in FACS buffer pH 6.4 or pH7.4 was added. The mixture was incubated for 30 min on ice. The cells were resuspended in 100 μl PBS with 1% FBS (Invitrogen®, Carlsbad, Calif.) and 2 μg/ml propidium iodide (Invitrogen®, Carlsbad, Calif.) of the corresponding pH. Final FACS data were acquired on a FACScan (Becton Dickinson, Franklin Lakes, N.J.).

Experiment [2] deals with T1, Neonatal Fc receptor (FcRn) on …. The experiment in a line: flow cytometry on CHO-FcRnGPI cells, pH 6.4. This is another data set of the same source.
Description: as §1
Experiment [3] has as its target T2, Recombinant Human IL-1β (human, UniProt P01584 117-269).
T2 construct: also called IL-1b
Put plainly: SPR (BIAcore); *off-rate at the limit of dissociation after 1 hour. On the technique in general: In SPR one partner is held on a chip, and binding of the other changes the refractive index at the surface.
Description: The BIAcore® assay (BIAcore®, Inc, Piscataway, N.J.) determines the affinity of antibodies with kinetic measurements of on-rate and off-rate constants. Binding of antibodies to a target antigen (for example, a purified recombinant target antigen) is determined by surface plasmon resonance-based measurements with a BIAcore® 1000 or 3000 instrument (BIAcore® AB, Uppsala, Sweden) using running HBS-EP (10 mM HEPES [pH 7.4], 150 mM NaCl, 3 mM EDTA, and 0.005% surfactant P20) at 25° C. […] Unreacted moieties on the biosensor surface are blocked with ethanolamine. Modified carboxymethyl dextran surface in flowcell 2 and 4 is used as a reaction surface. Unmodified carboxymethyl dextran without goat anti-mouse IgG in flow cell 1 and 3 is used as the reference surface. […] The association and dissociation rate constants, kₒₙ (M⁻¹s⁻¹) and koff (s⁻¹), are determined under a continuous flow rate of 25 μl/minute. […] The equilibrium dissociation constant (M) of the reaction between antibodies and the target antigen is then calculated from the kinetic rate constants by the following formula: KD=koff/kₒₙ. Binding is recorded as a function of time and kinetic rate constants are calculated.

The target of experiment [4] is T2, Recombinant Human IL-1β. Put plainly: SPR (BIAcore).
Description: The BIAcore® assay (BIAcore®, Inc, Piscataway, N.J.) determines the affinity of antibodies with kinetic measurements of on-rate and off-rate constants. Binding of antibodies to a target antigen (for example, a purified recombinant target antigen) is determined by surface plasmon resonance-based measurements with a BIAcore® 1000 or 3000 instrument (BIAcore® AB, Uppsala, Sweden) using running HBS-EP (10 mM HEPES [pH 7.4], 150 mM NaCl, 3 mM EDTA, and 0.005% surfactant P20) at 25° C. […] Unreacted moieties on the biosensor surface are blocked with ethanolamine. Modified carboxymethyl dextran surface in flowcell 2 and 4 is used as a reaction surface. Unmodified carboxymethyl dextran without goat anti-mouse IgG in flow cell 1 and 3 is used as the reference surface. For kinetic analysis, rate equations derived from the 1:1 Langmuir binding model are fitted simultaneously to association and dissociation phases of all eight injections (using global fit analysis) with the use of Biaevaluation 4.0.1 software. Purified antibodies are diluted in HEPES-buffered saline for capture across goat anti-mouse IgG specific reaction surfaces. […] The association and dissociation rate constants, kₒₙ (M⁻¹s⁻¹) and koff (s⁻¹), are determined under a continuous flow rate of 25 μl/minute. Rate constants are derived by making kinetic binding measurements at different antigen concentrations ranging from 10-200 nM. The equilibrium dissociation constant (M) of the reaction between antibodies and the target antigen is then calculated from the kinetic rate constants by the following formula: KD=koff/kₒₙ. Binding is recorded as a function of time and kinetic rate constants are calculated.

By EC50 is commonly meant the concentration needed to bring the measured effect to its halfway point. The low end stands for greater potency, the high end for weaker potency. Broadly, the koff is the rate constant with which the complex falls apart. As a reminder, the Kd is the free concentration of one partner at which half of the binding sites on the other are occupied at equilibrium, for simple one-to-one binding. In general, kon refers to the rate constant with which the complex forms.

Where a chain is given by its changes, count along the chain named. Numbers in names are those of the source. Read-outs that look alike come from different tables or passages of the source.

T1 sequence (P55899 24-297, chain 1 of 2): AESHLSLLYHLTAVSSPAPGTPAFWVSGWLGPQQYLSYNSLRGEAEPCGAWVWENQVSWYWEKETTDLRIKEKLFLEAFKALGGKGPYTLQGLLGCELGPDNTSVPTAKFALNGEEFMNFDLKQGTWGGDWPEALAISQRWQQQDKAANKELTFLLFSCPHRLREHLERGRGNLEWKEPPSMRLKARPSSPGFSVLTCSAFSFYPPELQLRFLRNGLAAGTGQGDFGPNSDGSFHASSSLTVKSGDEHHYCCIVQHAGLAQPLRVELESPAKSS
T1 sequence (P61769 21-119, chain 2 of 2, further chain): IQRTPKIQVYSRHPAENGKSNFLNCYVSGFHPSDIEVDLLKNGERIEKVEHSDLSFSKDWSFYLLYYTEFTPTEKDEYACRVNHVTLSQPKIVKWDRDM

B1: cMet-Mut1 (antibody, human IgG1, kappa)
heavy: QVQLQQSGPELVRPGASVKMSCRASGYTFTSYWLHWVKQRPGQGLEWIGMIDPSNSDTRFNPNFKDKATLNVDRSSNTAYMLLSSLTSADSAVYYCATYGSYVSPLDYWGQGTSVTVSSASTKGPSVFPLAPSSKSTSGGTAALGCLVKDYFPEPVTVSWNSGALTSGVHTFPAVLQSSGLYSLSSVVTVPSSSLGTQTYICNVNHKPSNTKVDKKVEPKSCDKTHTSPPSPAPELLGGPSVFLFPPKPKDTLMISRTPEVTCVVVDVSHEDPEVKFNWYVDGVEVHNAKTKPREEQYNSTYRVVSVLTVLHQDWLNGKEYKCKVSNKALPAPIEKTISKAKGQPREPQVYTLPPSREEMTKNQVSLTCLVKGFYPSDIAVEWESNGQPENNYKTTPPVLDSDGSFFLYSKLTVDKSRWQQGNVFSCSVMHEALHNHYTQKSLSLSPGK
light: DFMMSQSPSSLTVSVGEKVTVSCKSSQSLLYTSSQKNYLAWYQQKPGQSPKLLIYWASTRESGVPDRFTGSGSGTDFTLTITSVKADDLAVYYCQQYYAYPWTFGGGTKLELKRTVAAPSVFIFPPSDEQLKSGTASVVCLLNNFYPREAKVQWKVDNALQSGNSQESVTEQDSKDSTYSLSSTLTLSKADYEKHKVYACEVTHQGLSSPVTKSFNRGEC
notes: also called cMetHC-Mut1
B1 showed an EC50 in experiment [1] of 1.09 µM.

B2: cMet-Mut18-QL (antibody, human IgG1, kappa)
heavy: QVQLQQSGPELVRPGASVKMSCRASGYTFTSYWLHWVKQRPGQGLEWIGMIDPSNSDTRFNPNFKDKATLNVDRSSNTAYMLLSSLTSADSAVYYCATYGSYVSPLDYWGQGTSVTVSSASTKGPSVFPLAPSSKSTSGGTAALGCLVKDYFPEPVTVSWNSGALTSGVHTFPAVLQSSGLYSLSSVVTVPSSSLGTQTYICNVNHKPSNTKVDKKVEPKSCDKTHTSPPSPAPELLGGPSVFLFPPKPKDQLMISRTPEVTCVVVDVSHEDPEVKFNWYVDGVEVHNAKTKPREEQYNSTYRVVSVLTVLHQDWLNGKEYKCKVSNKALPAPIEKTISKAKGQPREPQVYTLPPSREEMTKNQVSLTCLVKGFYPSDIAVEWESNGQPENNYKTTPPVLDSDGSFRLYSKLTVDKSRWQQGNVFSCSVLHEALHNHYTQKSLSLSPGK
light: B1 light
notes: also called cMetHC-Mut18-QL
B2 yielded an EC50 in experiment [2] of 0.035 µM.

B3: cMet-Mut19 (antibody, human IgG1, kappa)
heavy: B2 heavy with Q252T, R407F, Y409R, L430M
light: B1 light
notes: Half-Ig; CH3 Y407R; 94.4 % half-Ig by SEC; also called cMetHC-Mut19
On to B3, for which the EC50 in experiment [1] turned out to be 2.98 µM.

B4: cMet-Mut10 (antibody, human IgG1, kappa)
heavy: B2 heavy with Q252T, P398A, K411D, L430M
light: B1 light
notes: Half-Ig; CH3 P395A, F405R, K409D; 97.5 % half-Ig by SEC; also called cMetHC-Mut10; cMet half Ig mut10
Regarding B4, the midpoint of the response in experiment [1], the EC50, lay at 293 µM.

B5: cMet-Mut13 (antibody, human IgG1, kappa)
heavy: B2 heavy with Q252T, P398A, R407F, K411D, L430M
light: B1 light
notes: Half-Ig; CH3 P395A, K409D; 94.9 % half-Ig by SEC; also called cMetHC-Mut13
B5: the concentration giving a half-maximal response (EC50) in experiment [1] came out at 0.63 µM.

B6: cMet-Mut18 (antibody, human IgG1, kappa)
heavy: B2 heavy with Q252T, L430M
light: B1 light
notes: Half-Ig; CH3 F405R; 94.5 % half-Ig by SEC; also called cMetHC-Mut18; cMet half Ig mut18
The molecule B6 had an EC50 in experiment [1] of 1980 µM.

B7: cMet-Mut14 (antibody, human IgG1, kappa)
heavy: B2 heavy with Q252T, Y409R, L430M
light: B1 light
notes: Half-Ig; CH3 F405R, Y407R; 96.1 % half-Ig by SEC; also called cMetHC-Mut14; cMet half Ig mut14
Molecule B7 displayed an EC50 in experiment [1] of 1.45 µM.

B8: cMet-Mut3 (antibody, human IgG1, kappa)
heavy: B2 heavy with Q252T, T368F, L370F, P398A, Y409R, K411D, L430M
light: B1 light
notes: Half-Ig; CH3 T366F, L368F, P395A, F405R, Y407R, K409D; 82.4 % half-Ig by SEC; also called cMetHC-Mut3
Molecule B8 returned an EC50 in experiment [1] of 1.13 µM.

B9: cMet-Mut18-GTv2 (antibody, human IgG1, kappa)
heavy: B2 heavy with Q252T, T309A, E382A, L430M, N436A
light: B1 light
notes: also called cMetHC-Mut18-GTv2
As for B9, in experiment [2], the EC50 was 0.015 µM.

B10: cMet-Mut11 (antibody, human IgG1, kappa)
heavy: B2 heavy with Q252T, P398A, L430M
light: B1 light
notes: Half-Ig; CH3 P395A, F405R; 94.8 % half-Ig by SEC; also called cMetHC-Mut11; cMet half Ig mut11
B10 gave an EC50 in experiment [1] of 4700 µM.

B11: cMet-Mut5 (antibody, human IgG1, kappa)
heavy: B2 heavy with Q252T, P398A, Y409R, K411D, L430M
light: B1 light
notes: Half-Ig; CH3 P395A, F405R, Y407R, K409D; 97.2 % half-Ig by SEC; also called cMetHC-Mut5
With B11, the midpoint of the response in experiment [1], the EC50, lay at 3290 µM.

B12: cMet-Mut20 (antibody, human IgG1, kappa)
heavy: B2 heavy with Q252T, R407F, K411D, L430M
light: B1 light
notes: Half-Ig; CH3 K409D; 91.7 % half-Ig by SEC; also called cMetHC-Mut20
Regarding B12, the midpoint of the response in experiment [1], the EC50, lay at 1.23 µM.

B13: ½ IL1b DA2 Fc (Fc fusion)
chain: EVQLLESGGGLVQPGGSLRLSCAASGFTFAEESWMWVRQAPGKGLEWVSRIGQDGKNTYYREDVKGRFTISRDNSKNTLYLQMNSLRAEDTAVYYCAKYTGRIMGHHLFDYWGQGTLVTVSSEPKSSDKTHTSPPSPAPELLGGPSVFLFPPKPKDTLMISRTPEVTCVVVDVSHEDPEVKFNWYVDGVEVHNAKTKPREEQYNSTYRVVSVLTVLHQDWLNGKEYKCKVSNKALPAPIEKTISKAKGQPREPQVYTLPPSREEMTKNQVSLTCLVKGFYPSDIAVEWESNGQPENNYKTTPPVLDSDGSFRLYSKLTVDKSRWQQGNVFSCSVMHEALHNHYTQKSLSLSPGK
notes: Half domain antibody-Fc with Fc-Mut18; 83 % half-Ig by SEC; also called half IL1b DA2 Fc
Consider B13, for which the koff in the experiment with Recombinant Human IL-1β [3] is 4.9e-06 s⁻¹. Further, in the experiment with Recombinant Human IL-1β [4], the Kd was found to be 0.028 nM and the kon came to 170000 M⁻¹ s⁻¹.
